Test results taken from the DeepSol protein solubility set.

Assay: soluble on expression in E. coli; label from the status in PepcDB or PDB records

Row | Sequence | soluble on expression in E. coli
1 | MRYLLSLSVFLIVSLNPAFAEWTGDNVEGMHSGMIINKFHSGQVDGKPYFCIEAFKPSTTITACSVKDTSIWGASYNTLYDQAMYYYTTGKRIRVYYAPDVWTNNSFVRALTANALVGFSTCISESSCFGPDRKKHKFTVH | not soluble
2 | TGVSSFQEILDKGMVFVNRNKGSGTRDLIEELIGNNESIRKNMKGYLWETNTEAGVARAVEQGRADAGITLEYYAIKLGLKYTHINKENYDILISKEFYDSEYGQAFIKNLKGLKDRIKNYPGYSVPDDI | not soluble
3 | SQKLADFKLPQFFNYPPYFTLQPVRDTREKQIQLWKELILDYCKSQKIFLIGVEEDFPLFSNSAIDRSLSHEARETFLSAIVGEGRAEWLDKGHRKCLILWHRIQDWADIVLQFVRDNGLEDSVMTVEEIRSGTESLGTELQGIDRTILMRALKLLENKGKLALFKGTSADDEGVKFSV | soluble
4 | APMKLYGAVMSWNLTRCATALEEAGSDYEIVPINFATAEHKSPEHLVRNPFGQVPALQDGDLYLFESRAICKYAARKNKPELLREGNLEEAAMVDVWIEVEANQYTAALNPILFQVLISPMLGGTTDQKVVDENLEKLKKVLEVYEARLTKCKYLAGDFLSLADLNHVSVTLCLFATPYASVLDAYPHVKAWWSGLMERPSVQKVAALMKPSA | soluble
5 | MEPQLRCIGCGAAIQFENPKNAGYAPKSVLEKDAEEVICQRCFRLKHYNEVQDVPLDDDDFLSMLHRIGESKALVVNIVDIFDFNGSFIPGLPRFAADNPILLVGNKADLLPRSVKYPKLLRWMRRMAEELGLCPVDVCLVSAAKGIGMAKVMEAINRYREGGDVYVVGCTNVGKSTFINRIIEEATGKGNVITTSYFPGTTLDMIEIPLESGATLYDTPGIINHHQMAHFVDARDLKIITPKREIHPRVYQLNEGQTLFFGGLARLDYIKGGRRSFVCYMANELTVHRTKLEKADSLYANQLGELLSPPSKRYAAEFPPLVPRSLSVKERKTDIVFSGLGWVTCNDPGAQLVVHAPKGVDVFIRQSLI | soluble
6 | GPGSMPPKSAVKKVDSAAATGKRKKLSFAESTVKAAAAAIQTTHVNVPVRAAAKHAPLAAAPRKKGQNAKKTTATTSSAARQRAATDLKRSGIVKAKRAEEEVAAPPVPSDEENSRDDEDDMLNGGAAVDSDTDDLSDMADRTPSDDELGAGKQASSSASRQRDSNGTVEPYRAVRLSFLPPEFQEPQLYKFLNQFGATVLNCFCVRSKRTHRSRGIAYVEFDKESAIPLVVEECNGMVLGGKAVRARAVTMRRRMPSRQMVDRRRALAYAYKTRGAPLKQHDVRRKGPVGLLIKAVRTEKNNNNYLKSLGIDFQTDFFQSQLATLPPVLLKKKRSRSKKSEKGTVATAGMAKAVVKTTDIATVASKSSPKRATRKAPATKTK | soluble
7 | MAGASETYTHTLTDVPIDIKYDSDDYFISGYSYGADVYMSSVNRVKLDSEINEDTRKFKVVADLTNMKPGTHKVPLKVVNLPSGVNATVSPTTITVTMGKKKTKEFPLEHHHHHH | not soluble
8 | MSLSDNRSHIEEKYQWDLTSIFPNDQTWEKEEKSLAKDLEIAVKRAGHLLDSSQSLLEITELYLALSRRLEKLYVYASMKNDQDTTVSYYQELQAKATALIAKFNQTFAFYEPEFMLLSTEKYQDFLADCPDLLPYQHFFEKLFKQKKHVLSQKEEALLAEASEIFGAAGETFEILDNADIIFPWVKDETGEEVELSHGNFISLMESKNRKVRQEAYKAMYSIYEQYQHTYAKTLQTNVKVNNFQAKIRNYKSAREAALAANFIPETVYDTLVEAVHNHLPLLQRYVKLRQNVLGLDDLKMYDIYVPLSEMDMTFTYEAALDKAEEVLAIFGRDYAERVHRAFRERWIDVRVNKGKRSGAYSGGSYDTNAFILLNWQDTLDNLFTLVHETGHSLHSTFTRENQPYVYGDYSIFLAEIASTTNENILTETLLKEATDEKQRFAILNHYLDGFKGTVFRQTQFAEFEDLIYKADQAGDVLTSDYLNNLYADLNEKYYGLSKENNPEIQYEWARIPHFYYNFYVYQYATGFAAASFLAHKIVHGNQEDKDKYLNYLKAGNSDYPLNVIAKAGLDMTESTYLDQAFKVFEERLIELEELVEKGIDEGHHHHHH | soluble
9 | MTNGIFKHSNQSILEDQDHVKKSTVEILMPAYVIGGPIRSIRVDKDRLFVLGMKNHPEVIDLTQMSHGTSLILEKIMSGNRYYTTQISMNQAAELCHVAHELKLVNLLKLVEMDMIRRPSTSMKHAVDALVLALKFGMLEAVNKLIDEIIFEFFNGLGLVGYCKSSTALEMIFDKNEMMLKEEIEVGRLNSEWNEPLPVGQEVVPSLPRGNNAQIPRIMLNVAKERIRSLVARPINSVKNGFAWISAQNLRRRGPRNHQDFPNFPD | not soluble
10 | MGSDKIHHHHHHMEPDFYHGFYPPTPLKTYPEEIFYIGKCTENMQPVGLDIGTNYTKITADGKNVLLYPSIVAYGEEKDWSLKGETKSVYIGDEALSIVQSMENVEVLRPLHEGRVLHTSYLELAKYGLNKLKVKDGLIATGLPVKSSKKEREELKRELESELNSKVLIFPEPVGTMAYMGMETGVCVDIGFGTTDVLVIADMEYLKGDTMLMGVDKLYENLEVAVRNRIGISITPEEMTKLLTTEGYEIGRIRGGKKVSVSREEIMPEYEGYVKTWVERIASRVKLVLEGLSTTLVENFAITGGGSMLPGVYEMFKESFSDIGDVKRPDEPIKANSIGYYILAKSLVVEAETEQSGDAEILDADDKKKGRKGKK | not soluble
11 | MATAEVLNIGKKLYEGKTKEVYELLDSPGKVLLQSKDQITAGNAARKNHLEGKAAISNKITSCIFQLLQEAGIKTAFTRKCGETAFIAPQCEMIPIEWVCRRIATGSFLKRNPGVKEGYKFYPPKVELFFKDDANNDPQWSEEQLIAAKFCFAGLLIGQTEVDIMSHATQAIFEILEKSWLPQNCTLVDMKIEFGVDVTTKEIVLADVIDNDSWRLWPSGDRSQQKDKQSYRDLKEVTPEGLQMVKKNFEWVAERVELLLKSESQCRVVVLMGSTSDLGHCEKIKKACGNFGIPCELRVTSAHKGPDETLRIKAEYEGDGIPTVFVAVAGRSNGLGPVMSGNTAYPVISCPPLTPDWGVQDVWSSLRLPSGLGCSTVLSPEGSAQFAAQIFGLSNHLVWSKLRASILNTWISLKQADKKIRECNL | soluble
12 | MDMISAFDIFKIGIGPSSSHTVGPMNAGKSFIDRLESSGLLTATSHIVVDLYGSLSLTGKGHATDVAIIMGLAGNSPQDVVIDEIPAFIELVTRSGRLPVTSGAHIVDFPVAKNIIFHPEMLPRHENGMRITAWKGQEELLSKTYYSVGGGFIVEEEHFGLSYDVETPVPYDFHSAGELLKMCDYNGLSISGLMMHNELALRSKAEIDAGFARIWQVMHDGIERGMNTEGVLPGPLNVPRRAVALRRQLVSSDNISNDPMNVIDWINMYALAVSEENAAGGRVVTAPTNGACGIIPAVLAYYDKFRRPVNERSIARYFLAAGAIGALYKMNASISGAEVGCQGEIGVACSMAAAGLTELLGGSPAQVCNAAEIAMEHNLGLTCDPVAGQVQIPCIERNAINAVKAVNAARMAMRRTSAPRVSLDKVIETMYETGKDMNDKYRETSRGGLAIKVVCG | soluble
13 | GAMEPKASCPAAAPLMERKFHVLVGVTGSVAALKLPLLVSKLLDIPGLEVAVVTTERAKHFYSPQDIPVTLYSDADEWEMWKSRSDPVLHIDLRRWADLLLVAPLDANTLGKVASGICDNLLTCVMRAWDRSKPLLFCPAMNTAMWEHPITAQQVDQLKAFGYVEIPCVAKKLVCGDEGLGAMAEVGTIVDKVKEVLFQHSGFQQS | soluble
14 | HHHHHHSVFEDDLPFLEFTGSIVYSYDASDCSFLSEDISMSLSDGDVVGFDMEWPPLYNRGKLGKVALIQLCVSESKCYLFHVSSMSVFPQGLKMLLENKAVKKAGVGIEGDQWKLLRDFDIKLKNFVELTDVANKKLKCTETWSLNSLVKHLLGKQLLKDKSIRCSNWSKFPLTEDQKLYAATDAYAGFIIYRNLEILDDTVQR | soluble
15 | MGSDKIHHHHHHDAGAPAFLSAGRVADGAYNLYGLDRRGRPLFHLPIPDRGHAAAAHPQRAEAVAFARRPGRFALVLNCVSGAEIARLSAPEGRHFYGHGAFDAEGRVLFTTENDYEAGQGRIGLWDAGAGYRRIGEVASGGVGPHDIRLMPDGQTLVVANGGVETHPDTGRVKLNLPVMQPNLSYLSLAGEVLEVVRMPPEHRMNSIRHLDLRADGLVAFAMQWQGEGTELRPVLGLHRRGTAPVAVTGNEAEMRAMNGYGGSVIFYDQGRRVAVSSPRGGIVQLSDVAAGRIIGGVAITDVCGLGVTGGGLVASSGSGVFTRVGGKEASRSEIAWDNHLVAVNRA | not soluble
